Data: patent KR20200019669A

Columns and labels:
[1] = biological target: his 태그가 부착된 재조합 인간 CD38 (recombinant human CD38 extracellular domain, His-tagged) (human) (UniProt P28907); assay: ForteBio (BLI), 1:1 fit
[2] = biological target: 인간 CD38 (human CD38, full length, on cells) (human) (UniProt P28907); assay: cell-based or functional assay

Kd [1]	CD38 시클라제 활성 억제 [2]	Substance
9 nM	–	IB4 (antibody)
–	70%	다라투무맙 (daratumumab) (antibody)
